In test [1] the target is T1, recombinant GST-SNAP25FL (UniProt P60880 1-206).
T1 construct: range 1-206; also called SNAP25 206; full-length SNAP25; not shown: GST tag
As to the kind of experiment: BLI (Octet Red96), IgG on AMC biosensor, GST-SNAP25FL as analyte; from tentative Kdis.

The target in test [2] is T1, recombinant GST-SNAP25FL. As to the kind of experiment: BLI (Octet Red96), IgG on AMC biosensor, GST-SNAP25FL as analyte.
The target of test [3] is T2, recombinant GST-SNAP25197 (UniProt P60880 1-197).
T2 construct: range 1-197; also called BoNT/A-cleaved form of SNAP25
T2 sequence (P60880 1-197 limits assumed): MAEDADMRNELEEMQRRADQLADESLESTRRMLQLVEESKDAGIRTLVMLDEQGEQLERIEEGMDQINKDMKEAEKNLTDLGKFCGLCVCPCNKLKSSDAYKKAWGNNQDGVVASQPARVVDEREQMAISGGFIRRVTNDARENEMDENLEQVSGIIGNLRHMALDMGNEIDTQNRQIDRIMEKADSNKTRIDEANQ
As to the kind of experiment: BLI (Octet Red96), IgG on AMC biosensor, GST-SNAP25197 as analyte.

In test [4] the target is T2, recombinant GST-SNAP25197. As to the kind of experiment: direct ELISA; ratio of A450 with SNAP25197 to A450 with SNAP25FL.
For test [5], the target named is T1, recombinant GST-SNAP25FL. Description: BLI (Octet Red96), IgG on AMC biosensor, GST-SNAP25FL as analyte; Kdis is the instrument's lowest limit, tentatively given.
The target in test [6] is T2, recombinant GST-SNAP25197.
In test [7] the target is T2, recombinant GST-SNAP25197. Description: BLI (Octet Red96), IgG on AMC biosensor, GST-SNAP25197 as analyte. This is another data set of the same source.
Test [8] addresses T2, recombinant GST-SNAP25197. The source holds these as a separate data set.
Test [9] addresses T1, recombinant GST-SNAP25FL. Description: BLI (Octet Red96), IgG on AMC biosensor, GST-SNAP25FL as analyte. The source holds these as a separate data set.
In test [10] the target is T3, endogenous SNAP25197 in total cell lysate of BoNT/A-treated N2-42F cells (mouse, UniProt P60879 1-197).
T3 construct: range 1-197; also called SNAP25197 captured
T3 sequence (P60879 1-197 limits assumed): as the sequence (P60880 1-197 limits assumed) above
As to the kind of experiment: sandwich ELISA on lysate of BoNT/A-treated N2-42F cells.

Test [11] concerns the target T3, endogenous SNAP25197 in total cell …. As to the kind of experiment: sandwich ELISA, plate coated with B4 IgG, lysate of BoNT/A-treated N2-42F cells.

Values joined by “and” are separate entries in the source; they are usually repeats but may differ in a detail not shown here. Equal values may be shown once. Read-outs that look alike come from different tables or passages of the source.

T1 sequence (P60880 whole entry): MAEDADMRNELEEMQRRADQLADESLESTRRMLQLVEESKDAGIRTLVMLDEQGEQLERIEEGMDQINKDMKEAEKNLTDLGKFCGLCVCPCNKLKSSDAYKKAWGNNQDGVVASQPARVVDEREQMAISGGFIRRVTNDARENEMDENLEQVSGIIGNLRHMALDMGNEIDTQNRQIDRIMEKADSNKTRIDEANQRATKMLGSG

B1: D2 IgG (antibody, V domains shown)
VH: DVKLQESGPGLVKPSQSLSLTCSVTGYSITSGYYWNWIRQFPGNKLEWMGYIRYDGSNNYNPSLKNRISITRDTSKNQFFLKLNSVTTEDTASYYCARDRDSSYYFDYWGQGTALTVSS
VL: DIVMTQSSSYLSVSLGGRVTITCKASDHINNWLAWYQQKPGNAPRLLISDTTSLETGVPSRFSGSGSGKDYTLSITSLQTEDVATYYCQQYWSAPPTFGGGTKLEIK
As to B1, in the test with recombinant GST-SNAP25FL [1], the Kd was ≤ 0.61 pM. The kon in the test with recombinant GST-SNAP25FL [2] turned out to be 164000 M⁻¹ s⁻¹. In test [3], the binding result is “no binding”. Also, the Ratio197/206 in test [4] turned out to be 0.03. In addition, the koff in the test with recombinant GST-SNAP25FL [5] is ≤ 1e-07 s⁻¹.

B2: D6 IgG (antibody, V domains shown)
VH: EVQLQQSGPELVKPGASVKISCKASGYTFTDYNMHWVKQSHGKSLEWIGYIYPYNGDTGYNQKFKSKATLTVDNSSSTAYMELRSLTSEDSAVYYCVRSGDYWGQGTTLTVSS
VL: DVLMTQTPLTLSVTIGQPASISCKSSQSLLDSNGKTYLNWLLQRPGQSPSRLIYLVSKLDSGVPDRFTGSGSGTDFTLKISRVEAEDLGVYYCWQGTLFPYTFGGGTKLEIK
As to B2, the Kd with recombinant GST-SNAP25FL [1] was ≤ 2.84 pM. Besides, the kon with recombinant GST-SNAP25FL [2] came to 35200 M⁻¹ s⁻¹. Besides, in test [3], the binding result is recorded as “no binding”. The Ratio197/206 in test [4] is 0.02. Moreover, the dissociation rate constant (koff) in the test with recombinant GST-SNAP25FL [5] was ≤ 1e-07 s⁻¹.

B3: B23 IgG (antibody, V domains shown)
VH: EVQLQQSGAELVRPGASVKLSCTASGINIKDYYMHWMKQRPEQDLEWIGWIDPGNGDAEYAPKFQGKATMTADTSSNTAYLQLSSLTSEDTAVYYCNEIAYWGQGTLVTVSA
VL: not shown
notes: also called B23 IgG1
For B3, the Kd was ≤ 0.1 pM in the test with recombinant GST-SNAP25FL [1] and ≤ 3.27 pM in test [6]. Also, the koff (in [6]; with recombinant GST-SNAP25FL [5]) was ≤ 1e-07 s⁻¹ each time. Moreover, the kon in [7] came to 25400 M⁻¹ s⁻¹; with recombinant GST-SNAP25FL [2], 95800 M⁻¹ s⁻¹. Further, the Ratio197/206 in test [4] was determined as 0.92.

B4: C4 IgG (antibody, V domains shown)
VH: DVKLQESGPGLVKPSQSLSLTCTVTGYSITSDYAWNWIRQFPGNKLEWMGYISYSVGTRYNPSLKSRISITRDTSKNQFFLLLKSVTNEDTATYFCARKGEYGFAYWGQGTLVTVSA
VL: DIVMTQSPASLAVSLGQRATISCRASKSVSTSGYSYMHWYQQKPGQPPKLLIYLASNLESGVPARFSGSGSGTDFTLNIHPVEEEDAATYYCQHSRELPLTFGAGTKLELK
In the case of B4, the Kd in test [8] is 6530 pM and 17800 pM; in [6] it was 1.07 pM. Besides, the koff in test [8] was 0.00148 s⁻¹ and 0.0041 s⁻¹; in test [6], 1e-07 s⁻¹. Further, the kon in test [8] was 230000 M⁻¹ s⁻¹ and 227000 M⁻¹ s⁻¹; in [7], 92800 M⁻¹ s⁻¹. Besides, the Ratio197/206 in [4] turned out to be 919. Moreover, the binding result in the test with recombinant GST-SNAP25FL [9] is reported as “no binding (tested: up to 1 µM)”.

B5: C24 IgG (antibody, V domains shown)
VH: EVKLVESGGGLVQPKGSLKLSCAASGYTFNTYAMNWVRQAPGKGLEWVARIRSKSNNYTTYYADSVKDRFTISRDDSQSMLYLQINNLKTEDTAMYYCVGQILYYYVGSPAWFAYWGQGTLVTVSA
VL: DIVMTQSPASLAVSLGQRATISCRASKSVSTSGYSYMHWYQQKPGQPPKLLIFLASNLESGVPARFSGSGSGTDFTLNIHPVEEEDAATYYCQHSRELPWTFGGGTKLEIK
Consider B5, for which, in [8], the Kd is 9620 pM and 5250 pM; the koff was 0.00509 s⁻¹ and 0.00241 s⁻¹; the kon was 529000 M⁻¹ s⁻¹ and 458000 M⁻¹ s⁻¹. Further, in test [6], the Kd was found to be 1.15 pM and the dissociation rate constant (koff) stood at 1e-07 s⁻¹. Also, the kon in test [7] worked out at 86800 M⁻¹ s⁻¹. In addition, the Ratio197/206 in test [4] worked out at 973. Further, the binding result with recombinant GST-SNAP25FL [9] is “no binding (tested: up to 1 µM)”.

B6: C7 IgG (antibody, V domains shown)
VH: QVQLVETGGGLVQPKGSLKLSCAASGFTFNTNAMNWVRQAPGKGLEWVARIRSKSNNYATYYADSVKDRFTISRDDSQSLLYLQMNNLKTEDTAMYYCVYGRSYGGLSYWGQGTLVTVSA
VL: DIVMTQSPASLAVSLGQRATISCRASKSVSSSGYSYMHWYQQKPGQPPKLLIYLASNLESGVPARFSGSGSGTDFTLNIHPVEEEDAATYYCQHSRELPLTFGAGTKLELK
notes: also called C7 IgG2a
In the case of B6, the kon in [8] was 277000 M⁻¹ s⁻¹ and 257000 M⁻¹ s⁻¹. For the same molecule, in [6], the Kd came out at 1.28 pM and the koff was found to be 1e-07 s⁻¹. Also, the kon in [7] worked out at 77800 M⁻¹ s⁻¹. The Ratio197/206 in [4] came to 1040. The binding result in the test with recombinant GST-SNAP25FL [9] is on record as “no binding (tested: up to 1 µM)”.

B7: C16 IgG (antibody, V domains shown)
VH: EVQLQQSGAELARPGASVQMSCKAFGYTFTNYTMHWVRQRPGQGLEWIGFINPSSDYTNYNQKFKDKATLSADKSSSTAYMQLSSLTSEDSAVYYCARRIFYNGRTYAAMDYWGQGTSVTVSS
VL: DIVMTQSPASLAVSLGQRATISCRASKSVSSSGYSYMHWYQQKPGQPPKLLIYLASNLESGVPARFSGSGSGTDFTLNIHPVEEEDAATYYCQHSRELPLTFGAGTKLELK
notes: also called C16 IgG1
Regarding B7, in [8], the Kd was 6440 pM and 9170 pM; the koff is 0.00152 s⁻¹ and 0.00215 s⁻¹; the kon was 236000 M⁻¹ s⁻¹ and 235000 M⁻¹ s⁻¹. In [7], the Kd worked out at 1.62 pM, the koff worked out at 2.57e-06 s⁻¹ and the kon worked out at 1.6e+06 M⁻¹ s⁻¹. The Ratio197/206 in [4] came out at 996. The binding result with recombinant GST-SNAP25FL [9] is “no binding (tested: up to 1 µM)”.

B8: C16 IgG-HRP conjugate (antibody, V domains shown)
VH: EVQLQQSGAELARPGASVQMSCKAFGYTFTNYTMHWVRQRPGQGLEWIGFINPSSDYTNYNQKFKDKATLSADKSSSTAYMQLSSLTSEDSAVYYCARRIFYNGRTYAAMDYWGQGTSVTVSS
VL: DIVMTQSPASLAVSLGQRATISCRASKSVSSSGYSYMHWYQQKPGQPPKLLIYLASNLESGVPARFSGSGSGTDFTLNIHPVEEEDAATYYCQHSRELPLTFGAGTKLELK
notes: also called C16-HRP; Cg16 IgG-HRP conjugates
Turning to B8, the binding result in test [10] is “binds”.

B9: C14 IgG (antibody, V domains shown)
VH: EVKLVESGGGLVQPKGSLKLSCAASGFTFNTNAMNWVRQAPGKGLEWVARIRSKSDNYATYYADSVKDRFTISRDDSPSMLYLQMNNLKTEDTAMYYCVYGRSYGGLGYWGQGTLVTVSA
VL: DIVLTQSPASLAVSLGQRATISCRASKSVSTSGYSYVHWYQQKPGQPPKLLIYLASNLESGVPARFSGSGSGTDFTLNIHPVEEEDAATYYCQHSRELPLTFGAGTKLELK
Regarding B9, in [6], the Kd was ≤ 1.3 pM and the koff was ≤ 1e-07 s⁻¹. In addition, in test [7], the kon turned out to be 76700 M⁻¹ s⁻¹. Also, the Ratio197/206 in test [4] stood at 953. Moreover, the binding result with recombinant GST-SNAP25FL [9] is recorded as “no binding (tested: up to 1 µM)”.

B10: B4 IgG (antibody, V domains shown)
VH: EVKLVESGGGLVKPGGSLKLSCAASGFTFSNYGMSWVRQTPEKRLEWVATISSGGSYTYYPDSVKGRFTISRDNAKNTLYLQMSSLRSEDTAMYYCARHEGGGNPYFDYWGQGTTLTVSS
VL: DVLMTQTPLSLPVSLGDQASISCRSSQSLVHSNGNTYLHWYLQKPGQSPKLLIYKVSNRFSGVPDRFSGSGSGTDFTLKISRVEAEDLGVYFCSQNTLVPWTFGGGTKLEIK
notes: also called B4 IgG1; clone 4
Consider B10, for which the Kd with recombinant GST-SNAP25FL [1] is ≤ 0.1 pM. The kon in the test with recombinant GST-SNAP25FL [2] is 95100 M⁻¹ s⁻¹. For the same molecule, the Ratio197/206 in [4] is 0.83. Besides, the koff with recombinant GST-SNAP25FL [5] was ≤ 1e-07 s⁻¹. For the same molecule, the binding result in test [11] is reported as “binds”.

B11: D3 IgG (antibody, V domains shown)
VH: EVQLEESGGGLVQPGGSLKLSCAASGFTFSNYGMSWVRQTPDKRLELVATINSNGGTTYYPDSVKGRFTISRDNAKNTLYLQMSSLKSEDSAMYYCARDRDAMDYWGQGTSVTVSS
VL: DVLMTQTPLSLPVSLGDQASISCRSSQSIVNSHGNTYLEWYLQKPGQSPKLLIYKVSNRFSGVPDRFSGSGSGTDFTLKISRVEAEDLGVYYCFQGSHVPWTFGGGTKLEIK
For the molecule B11, in test [6], the Kd is ≤ 0.9 pM and the koff is ≤ 1e-07 s⁻¹. In addition, the kon in [7] was found to be 111000 M⁻¹ s⁻¹. Further, the Ratio197/206 in test [4] is 12.9. Further, the binding result with recombinant GST-SNAP25FL [9] is recorded as “no binding (tested: up to 1 µM)”.

(Values after patent publication EP4796630A2 (Hugel Inc., dated 2026).)
